Data reported in patent US20260008852A1 (CRYSTAL BIOSCIENCE, published 2026).
Residue numbers refer to the chain shown, from its start.

T1: his-tagged B7-H3 (UniProt Q5ZPR3-2 29-245, limits assumed)
T1 construct: also called CD276; not shown: His tag
T1 sequence (looked up): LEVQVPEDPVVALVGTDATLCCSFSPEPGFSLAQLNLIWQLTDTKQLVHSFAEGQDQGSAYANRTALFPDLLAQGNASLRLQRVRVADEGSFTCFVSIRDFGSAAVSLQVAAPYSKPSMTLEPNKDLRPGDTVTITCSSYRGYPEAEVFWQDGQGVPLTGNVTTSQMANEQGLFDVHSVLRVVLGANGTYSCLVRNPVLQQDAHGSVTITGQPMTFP

B1: 40511p1.2.A8 scFv-Fc (scFv, V domains shown)
VH: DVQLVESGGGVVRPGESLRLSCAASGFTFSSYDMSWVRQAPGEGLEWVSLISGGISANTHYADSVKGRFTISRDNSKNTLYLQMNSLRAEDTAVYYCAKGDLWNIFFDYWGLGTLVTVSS
VL: EIVLTQSPATLSVSPGERATFSCRASQNVRSYLAWYQQKPGQAPRLLIFNTVTRATGIPDRFSGSGSGTDFTLTISSLEPEDFAVYYCQQYYDWPPLTFGGGTKVEIK
B2: 40579p1.C2 scFv-Fc (scFv, V domains shown)
VH: EVQLLESGGDLVQPGGSLRLSCAASGFNFSSYWMSWVRQAPGKGLEWVSGISISYGGNAYYADSVKGRFTVSRDNSKNTLYLQMNSLRAEDTAVYYCGRDRSPYQYRSMDVWGQGTTVTVSS
VL: EIVLTQSPATLSVSPGERATFSCRASQTIGNKLAWYQQKPGQAPRLLIFSASTRATDIPDRFSGSGSGTDFTLTISSLQSEDFAVYYCQQYNNWPPLTFGGGTKVEIK
notes: Tested as scFv-Fc supernatant
B3: 40579p1.D8 scFv-Fc (scFv, V domains shown)
VH: B2 VH with D10G, N28T, S31D, W33Y, G50S, N58T, A59T, V71I, G98A, Y106C
VL: EIVLTQSPGTLSLSPGERATLSCRASQSIRSDLAWYQQKPGQAPRLLIYNTVTRATGVPDRFSGSGSGTEFTLTISSLQSEDFAVYYCQQYNSWPPLTFGGGTKVEIK
notes: Tested as scFv-Fc supernatant
B4: 40579p1.F7 scFv-Fc (scFv, V domains shown)
VH: B2 VH with D10G, N28T, S31D, W33Y
VL: EIVLTQSPGTLSLSPGERATLTCRASQSVGDFLAWYQQKPGQAPRLLIYGASTRAAGIPARFRGSGSGTDFTLTISSLQSEDFAVYYCQQYKNWPPLTFGGGTKVEIK
notes: Tested as scFv-Fc supernatant
B5: 40511p1.1.D6 scFv-Fc (scFv, V domains shown)
VH: DVQLVESGGGVVRPGESLTLSCAASGFTINSYAVSWVRQAPGEGLEWVSGISGSGVRYYADSVKGRFTISRDNSNNTLYLQMNSLRAEDTAVYYCARSNKVTWNNFFDYWGLGTLVTVSS
VL: EVVLTQSPGTLTLSPGERATLSCRASRSILTSLAWYQQKPGQAPRLLIYNTVTRATGIPARFSGSGSGTEFTLTINSLQSEDFAVYYCQQYYDWPPLTFGGGTKVEIK
notes: Tested as scFv-Fc supernatant
B6: 40511p1.1.G3 scFv-Fc (scFv, V domains shown)
VH: B5 VH with N73D
VL: B5 VL
notes: Tested as scFv-Fc supernatant
B7: 40511p1.1.A1 scFv-Fc (scFv, V domains shown)
VH: DVQLVESGGGVVRPGESLRLSCAASGFTFSNYAMNWVRQAPGEGLEWVSRINYKGYNITYYADSVKGRFTISRDNSKNTLYLQMNSLRAEDTAVYYCAKSGSNSNNFFDYWGLGTLVTVSS
VL: EIVLTQSPGTLSVSPGERATLSCRASQSVNSKLAWYQQRPGQAPRLLIYDASSRATGIPDRFSGSGSGTDFTLTISRLEPEDFAVYYCQQYKNWPPLTFGGGTKVEIK
notes: Tested as scFv-Fc supernatant
B8: 40579p1.B8 scFv-Fc (scFv, V domains shown)
VH: EVQLLESGGGLVQPGGSLRLSCAASGFTFSDYYMSWVRQAPGKGLEWVSGISMSSTIYYADSVKGRFTISRDNSKNTLYLQMNSLRAEDTAVYYCARHRSPYQYRSMDVWGQGTTVTVSS
VL: B7 VL with V13L, R39K, A43P, R45S, S53R, D70E, R77S, E79Q, P80S, K92N
B9: 40511p1.2.A12 scFv-Fc (scFv, V domains shown)
VH: DVQLVESGGGVVRPGESLRLSCAASGFTFSSYAESWVRQAPGEGLEWVSIISGSGGNTFYADSVKGRFTISRDNSKNTLYLQMNSLRAEDTAVYYCARFAYGFFDYWGLGTLVTVSS
VL: B2 VL with A9G, F21L, I29V, N31S, A43P, R45S, F49Y, S50D, D57G, N92R
notes: Tested as scFv-Fc supernatant; also called 40511p1.2.Al2
B10: 40511p1.1.H10 scFv-Fc (scFv, V domains shown)
VH: B7 VH
VL: EIVLTQSPGNLSLSPGERATLSCRASQSVGSQLGWYQQKPGQAPRLLIYGASTRATGIPDRFSGSGSGTEFALTISSLQSEDFAVYYCQQYYDWPPLTFGGGTKVEIK
B11: 40511p1.1.H5 scFv-Fc (scFv, V domains shown)
VH: B7 VH
VL: B3 VL with N50G, T51A, V52A, T53S, V58I, D60A, E81G
notes: Tested as scFv-Fc supernatant
B12: 40511p1.2.A4 scFv-Fc (scFv, V domains shown)
VH: B9 VH
VL: B2 VL with A9G, F21L, I29V, N31S, F49Y, S50D, N92R
notes: Tested as scFv-Fc supernatant
B13: 40511p1.1.G1 scFv-Fc (scFv, V domains shown)
VH: B9 VH
VL: EIVLTQSPGTLSVSPGEGATLSCRASQTVGSKLAWYQQKPGQPPSLLIYDASTRATGIPDRFSGSGSGTDFTLTISSLQSEDFAVYYCQQYRNWPPLTFGGGTKVEIK
notes: Tested as scFv-Fc supernatant
B14: 40511p1.2.G10 scFv-Fc (scFv, V domains shown)
VH: B7 VH
VL: B10 VL with N10T, S28T, Q32K, G34A, G57D, A72T, Y92I, D93N, T98S
notes: Tested as scFv-Fc supernatant
B15: 40511p1.1.D3 scFv-Fc (scFv, V domains shown)
VH: DVQLVESGGGVVRPGGSLRLSCAASGFTFRSYGMNWVRQAPGEGLEWVSRMSSGGGAYYADSVKGRFTISRDNSKNTLYLQMNSLRAEDTAVYYCARNSRDFFFDQWGLGTLVTVSS
VL: B10 VL with I2T, N10T, G30N, Q32K, G34A, T53S, D60A, A72T, S80T, Y92S
B16: 40579p1.G1 scFv-Fc (scFv, V domains shown)
VH: B2 VH with D10G
VL: B3 VL with N50G, T51A, V52S, T53S, V58I, D60A, S93N
notes: Tested as scFv-Fc supernatant
B17: 40579p1.E5 scFv-Fc (scFv, V domains shown)
VH: EVQLLESGGGLVQPGGSLRLSCAASGFTFSDDWMTWVRQAPGKGLEWVSAINWNGNSTHYADSVKGRFTVSRDNSKNTLYLQMNSLRAEDTAVYYCAKSRTTYYSSMDVWGQGTTVTVSS
VL: EIVLTQSPGTLSLSPGERATLSCRASQTVGSYLAWYQQKPGQAPRLLIYGASSRATGIPARFSGSGSGTDFTLTISSLQSEDFAVYYCQHYYDWPPYSFGGGTKVEIK
B18: 40579p1.H7 scFv-Fc (scFv, V domains shown)
VH: B2 VH
VL: B3 VL with N50G, T51A, V52S, T53S, V58I, D60A, S93N
notes: Tested as scFv-Fc supernatant
B19: 40511p1.1.C3 scFv-Fc (scFv, V domains shown)
VH: DVQLVESGGGVVRPGGSLRLSCAASGFTFRIYGMTWVRQAPGEGLEWVSTISGSGNSTYYADSVKGRFTISRDNSKNTLYLQMNSLRAEDTAVYYCAKTWNNYRFFDYWGLGTLVTVSS
VL: EIVLTQSPGTLSLSPGERATLSCRASQPINSSYLAWYQQKPGQAPRLLIYAASSRATDIPDRFSGSGSGTDFTLTISSLQSEDFAVYYCQQYYDWPQFTFGGGTKVEIK
B20: 40579p1.H6 scFv-Fc (scFv, V domains shown)
VH: EVQLLESGGGLVQPGGSLRLSCAASGFTVNNAWMSWVRQAPGKGLEWVSAISYGGSIYYADSVKGRFTISRDNSKNTLYLQMNSLRAEDTAVYYCAKHRSTTYNGMDVWGQGTTVTVSS
VL: B4 VL with T22S, D31S, S52N, A60D, S67N, K92Y, N93D
B21: 40511p1.1.D8 scFv-Fc (scFv, V domains shown)
VH: DVQLVESGGGVVRPGESLRLSCAASGFTFSSYAMSWVRQAPGEGLEWVSSISGSGGSTLYADSVKGRFTISRDSSNNSLYLQMNSLRAEDTAVYYCAKARNNFFDYWGLGTLVTVSS
VL: EIVLTQSPGTLTLSPGERATLSCRASRSILTSLAWYQQRPGQAPRLLIYGANSRATGIPDRFSGSGSGTEFTLTISSLQSEDFAVYYCQQYYDWLTITFGGGTKVEIK
B22: 40511p1.2.B5 scFv-Fc (scFv, V domains shown)
VH: B21 VH
VL: B21 VL with A43T
B23: 40511p1.1.C4 scFv-Fc (scFv, V domains shown)
VH: DVQLVESGGGVVRPGESLRLSCAASGFTFSSYAMSWVRQAPGEGLEWVSRISGSGNSTDYAESVKGRFTISRDSSKNTLYLQMNSLRAEDTAVYYCAKHSTVSFFDYWGLGTLVTVSS
VL: EIVLTQSPGTLSLSPGERATLSCRASQSISSRYLAWYQQKPGQAPRLLIYGASRRATGIPARFSGSGSGTEFTLTISSLQSEDFAVYYCQQYGHWPPLTFGGGTKVEIK

Molecular target: T1, his-tagged B7-H3
Assay: SPR, Carterra LSA; binder captured by anti-human Fc, his-tagged B7-H3 injected
Protocol: Binding affinities of anti-B7-H3 antibodies to B7-H3 were measured by Surface Plasmon Resonance (SPR) on a Carterra LSA instrument. Goat anti-human Fc antibody was amine coupled to a HC30M chip. ScFv-Fc supernatants were diluted 30-fold with HBSTE and were captured by the anti-human Fc coupled HC30M chip. A 1:2 dilution series of his-tagged B7-H3, starting at 400 nM, was injected onto the chip for binding. Data was analyzed using the Carterra TM Kinetics software.

Kd	kon	koff	Binder
0.639 nM	364000 M⁻¹ s⁻¹	–	B1
9.11 nM	452000 M⁻¹ s⁻¹	–	B2
44.2 nM	25700 M⁻¹ s⁻¹	–	B3
212 nM	108000 M⁻¹ s⁻¹	0.02 s⁻¹	B4
0.325 nM	669000 M⁻¹ s⁻¹	–	B5
0.759 nM	494000 M⁻¹ s⁻¹	–	B6
463 nM	93000 M⁻¹ s⁻¹	0.04 s⁻¹	B7
3.1 nM	622000 M⁻¹ s⁻¹	–	B8
25.1 nM	1.32e+06 M⁻¹ s⁻¹	0.03 s⁻¹	B9
1.41 nM	752000 M⁻¹ s⁻¹	–	B10
123 nM	10300 M⁻¹ s⁻¹	–	B11
52 nM	768000 M⁻¹ s⁻¹	0.04 s⁻¹	B12
54.4 nM	458000 M⁻¹ s⁻¹	0.02 s⁻¹	B13
15 nM	645000 M⁻¹ s⁻¹	0.01 s⁻¹	B14
321 nM	109000 M⁻¹ s⁻¹	0.04 s⁻¹	B15
6.75 nM	260000 M⁻¹ s⁻¹	–	B16
2.51 nM	493000 M⁻¹ s⁻¹	–	B17
5.57 nM	281000 M⁻¹ s⁻¹	–	B18
47.7 nM	406000 M⁻¹ s⁻¹	0.02 s⁻¹	B19
7.72 nM	252000 M⁻¹ s⁻¹	–	B20
71.8 nM	340000 M⁻¹ s⁻¹	0.02 s⁻¹	B21
61.2 nM	795000 M⁻¹ s⁻¹	0.05 s⁻¹	B22
17.1 nM	76900 M⁻¹ s⁻¹	–	B23
